The target in the assay is papain (cysteine protease) (UniProt P00784). The experiment in a line: cell-based or functional assay.
Sequence of UniProt P00784 (P00784 134-345 limits assumed): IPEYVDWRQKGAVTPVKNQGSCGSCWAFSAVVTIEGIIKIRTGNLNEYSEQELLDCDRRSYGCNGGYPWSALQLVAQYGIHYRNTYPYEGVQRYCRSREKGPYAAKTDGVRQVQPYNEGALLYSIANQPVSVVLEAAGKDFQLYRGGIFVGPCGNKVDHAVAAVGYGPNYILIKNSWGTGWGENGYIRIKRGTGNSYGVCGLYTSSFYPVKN

In the case of “recombinant CeCPI protein (taro cysteine protease inhibitor, tarocystatin)”, the residual protease activity of papain on 0.1% gelatin/SDS-PAGE came out at 100.
